Reference: paper PMC6548343

Target: Nucleosomes (Nuc207) with 30 bp linker DNA at both ends
Experiment: EM 3D reconstruction of the assembled complex; ~30 μg/ml actin/Arp module with a 10-fold molar excess of Nuc207, 2 h at 4°C, 20 mM HEPES pH 8.0, 40 mM KOAc, 5 mM MgCl2, no ATP; two binding states

INO80 N-terminal subcomplex (N.com) (from UniProt P53115 356-691; P60010 1-375; P80428 1-489; Q12386 1-881; P35189 1-244; Q08561 1-116)
stoichiometry N: 1
